What all share (test): SPR (Biacore), antibody captured on chip, FcgR extracellular domain as analyte
In general terms: SPR reads the build-up and loss of mass on a sensor chip optically.

Assay [1] concerns the target T1, FcgRIIa R (human, UniProt P12318 34-217).
T1 construct: extracellular domain; also called FcγRIIa R; FcγRIIa type R; not shown: His tag attached to the C terminus
T1 sequence (looked up): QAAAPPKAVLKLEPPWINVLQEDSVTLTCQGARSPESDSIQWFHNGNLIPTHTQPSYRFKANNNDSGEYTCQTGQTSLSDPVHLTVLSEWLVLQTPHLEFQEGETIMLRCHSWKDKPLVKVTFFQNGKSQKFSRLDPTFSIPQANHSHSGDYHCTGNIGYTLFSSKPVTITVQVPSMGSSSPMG
Here is the method:
(§1) Analysis of interaction between obj ective antibody and the FcγR was carried out using Biacore T100 (GE Healthcare), Biacore T200, Biacore A100, and Biacore 4000. HBS-EP+ (GE Healthcare) was used as the running buffer, and the measurement temperature was set to 25° C. Chips produced by immobilizing the antigen peptide by the amine coupling method to a Series S sensor Chip CM5 (GE Healthcare), chips produced by allowing preliminarily biotinylated antigen peptides to interact with and immobilize onto a Series S Sensor Chip SA (certified) (GE Healthcare), chips produced by immobilizing Protein L (ACTIGEN, BioVision) to Series S Sencor Chip CM5 (GE Healthcare), or chips produced by immobilizing Protein A/G (Thermo Scientific) to Series S Sencor Chip CM5 (GE Healthcare) were used. Antibodies of interest were captured onto these chips, and allowed to interact to each FcγR diluted with running buffer. To regenerate and repeatedly use the chip, the antibodies captured onto the chip were washed off by reacting 10 mM glycine-HCl, pH 1.5.

Assay [2] has as its target T2, FcgRIIIa V (human, UniProt P08637 17-208).
T2 construct: extracellular domain; also called FcγRIIIa V; not shown: His tag attached to the C terminus
The procedure: as §1

Assay [3] addresses T3, FcgRIIIa F (human, UniProt P08637 17-208).
T3 construct: extracellular domain; also called FcγRIIIa F; not shown: His tag attached to the C terminus
Here is the method: as §1

In assay [4] the target is T4, FcgRIIa H (human, UniProt P12318 34-217).
T4 construct: extracellular domain; also called FcγRIIa H; FcγRIIa type H; not shown: His tag attached to the C terminus
T4 sequence (looked up): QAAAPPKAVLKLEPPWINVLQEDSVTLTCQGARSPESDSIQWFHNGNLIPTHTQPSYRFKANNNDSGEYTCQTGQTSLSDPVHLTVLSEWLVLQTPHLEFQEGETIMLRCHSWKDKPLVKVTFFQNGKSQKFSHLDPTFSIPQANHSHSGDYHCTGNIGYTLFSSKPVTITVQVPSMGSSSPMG
The procedure: as §1

In assay [5] the target is T1, FcgRIIa R. Here is the method:
(§2) H240-Kn113 (SEQ ID NO: 92) resulting from introduction of Y234E and Y235N into H240-Kn072, H240-Kn115 (SEQ ID NO: 93) resulting from introduction of S239M into H240-Kn072, and H240-Kn125 (SEQ ID NO: 94) resulting from introduction of Y235Q and S239M into H240-Kn072 were prepared according to the method described in Reference Example 1.
as §1
The source holds these as a separate data set.

Another assay concerns the target T5, FcgRIIb (human, UniProt P31994 43-217).
T5 construct: extracellular domain; Expressed in FreeStyle293 cells and purified; used as analyte in Biacore; also called FcγRIIb; CD32B; not shown: His tag attached to the C terminus
T5 sequence (looked up): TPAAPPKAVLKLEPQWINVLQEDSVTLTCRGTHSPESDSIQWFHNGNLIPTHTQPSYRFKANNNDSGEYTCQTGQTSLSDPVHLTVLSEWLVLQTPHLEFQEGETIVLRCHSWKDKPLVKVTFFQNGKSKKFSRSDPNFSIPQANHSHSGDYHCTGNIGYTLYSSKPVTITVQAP
The procedure:
as §2, §1

In assay [6] the target is T2, FcgRIIIa V. Here is the method:
as §2, §1
The source holds these as a separate data set.

A further assay has as its target T6, FcgRIa (human, UniProt P12314 16-292).
T6 construct: extracellular domain; Expressed in FreeStyle293 cells and purified; used as analyte in Biacore; also called FcγRIa; FcγRI; not shown: His tag attached to the C terminus
Here is the method: as §2, §1

Assay [7] deals with T3, FcgRIIIa F. The procedure:
as §2, §1
This is another data set of the same source.

For assay [8], the target named is T4, FcgRIIa H. Here is the method:
as §2, §1
This is another data set of the same source.

Like-named read-outs stand apart in the source and are kept apart here.

T2 sequence (P08637 17-208 F176V limits assumed): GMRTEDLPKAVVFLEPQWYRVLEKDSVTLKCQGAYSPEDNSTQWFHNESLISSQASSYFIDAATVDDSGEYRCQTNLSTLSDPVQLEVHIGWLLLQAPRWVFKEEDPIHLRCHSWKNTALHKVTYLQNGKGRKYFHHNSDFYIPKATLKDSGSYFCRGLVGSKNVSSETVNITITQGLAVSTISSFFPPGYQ
T3 sequence (P08637 17-208): as the sequence (P08637 17-208 F176V limits assumed) above, with V160F counted along it
T6 sequence (P12314 16-292): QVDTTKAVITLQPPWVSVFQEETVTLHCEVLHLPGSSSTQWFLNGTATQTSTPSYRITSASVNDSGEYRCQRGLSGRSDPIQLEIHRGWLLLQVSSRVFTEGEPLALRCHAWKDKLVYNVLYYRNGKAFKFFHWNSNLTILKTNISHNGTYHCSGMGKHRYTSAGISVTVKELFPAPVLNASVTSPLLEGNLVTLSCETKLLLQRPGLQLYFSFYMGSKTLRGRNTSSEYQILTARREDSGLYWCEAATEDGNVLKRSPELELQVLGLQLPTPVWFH

B1: H240-Kn067/H240-Hl136/L73-k0 (antibody, human IgG1, kappa)
heavy 1: QDQLVQSGAEVKKPGASVKVSCKASGFNIKDTYIQWVRQAPGQGLEWMGRIDPLRKQTKYREKFEGRVTITADTSTNTAYMELSSLRSEDTAVYYCVRSGREFDYWGQGTLVTVSSASTKGPSVFPLAPSSKSTSGGTAALGCLVKDYFPEPVTVSWNSGALTSGVHTFPAVLQSSGLYSLSSVVTVPSSSLGTQTYICNVNHKPSNTKVDKKVEPKSCDKTHTCPPCPAPEYYWGPSVFLFPPKPKDTLMISRTPEVTCVVVDVSDEDPEVKFNWYVDGVEVHNAKTKPREEQYNATYRVVSVLTVLHQDWLNGKEYKCKVSNKDLPAPIEKTISKAKGQPREPQVCTLPPSRDELTKNQVSLWCLVKGFYPSDIAVEWESNGQPENNYKTTPPVLDSDGSFFLYSKLTVDKSRWQQGNVFSCSVMHEALHNHYTQKSLSLSP
heavy 2: QDQLVQSGAEVKKPGASVKVSCKASGFNIKDTYIQWVRQAPGQGLEWMGRIDPLRKQTKYREKFEGRVTITADTSTNTAYMELSSLRSEDTAVYYCVRSGREFDYWGQGTLVTVSSASTKGPSVFPLAPSSKSTSGGTAALGCLVKDYFPEPVTVSWNSGALTSGVHTFPAVLQSSGLYSLSSVVTVPSSSLGTQTYICNVNHKPSNTKVDKKVEPKSCDKTHTCPPCPAPEYYWGPSVFLFPPKPKDTLMISRTPEVTCVVVDVSDEDPEVKFNWYVDGVEVHNAKTKPREEQYNATYRVVSVLTVLHQDWLNGKEYKCKVSNKDLPAPIEKTISKAKGQPREPQVYTLPPSRCELTKNQVSLSCAVKGFYPSDIAVEWESNGQPENNYKTTPPVLDSDGSFFLVSKLTVDKSRWQQGNVFSCSVMHEALHNHYTQKSLSLSP
light: DIQMTQSPSSLSASVGDRVTITCRASQDIHKYIAWYQQKPGQAPRLLIQYTSTLQPGVPSRFSGSGSGTDYTFTISSLQPEDIATYYCLQYEQLRTFGGGTKVEIKRTVAAPSVFIFPPSDEQLKSGTASVVCLLNNFYPREAKVQWKVDNALQSGNSQESVTEQDSKDSTYSLSSTLTLSKADYEKHKVYACEVTHQGLSSPVTKSFNRGEC
notes: Anti-EREG IgG1 called homodimerized: both H chains (knob and hole) carry L234Y/L235Y/G236W/H268D/S298A/A327D; also called H240-Kn067/H240-HI136/L73-k0
As usually defined, the Kd is the concentration at which binding is half-saturated. High values mean a looser complex, low ones a tighter complex. In the case of B1, the Kd with FcgRIIa R [1] is 950 nM; with FcgRIIIa V [2] it was 340 nM; with FcgRIIIa F [3], 960 nM; in the assay with FcgRIIa H [4], 2100 nM.

B2: H240-Kn133/H240-Hl068/L73-k0 (antibody, human IgG1, kappa)
heavy 1: QDQLVQSGAEVKKPGASVKVSCKASGFNIKDTYIQWVRQAPGQGLEWMGRIDPLRKQTKYREKFEGRVTITADTSTNTAYMELSSLRSEDTAVYYCVRSGREFDYWGQGTLVTVSSASTKGPSVFPLAPSSKSTSGGTAALGCLVKDYFPEPVTVSWNSGALTSGVHTFPAVLQSSGLYSLSSVVTVPSSSLGTQTYICNVNHKPSNTKVDKKVEPKSCDKTHTCPPCPAPELLGGPSVFLFPPKPKDTLMISRTPEVTCVVVDVSHEEPEVKFNWYVDGVEVHNAKTKPREEQYNSTYRVVSVLTVLHQDWLNGKEYKCKVSNDALPKPIEETISKAKGQPREPQVCTLPPSRDELTKNQVSLWCLVKGFYPSDIAVEWESNGQPENNYKTTPPVLDSDGSFFLYSKLTVDKSRWQQGNVFSCSVMHEALHNHYTQKSLSLSP
heavy 2: QDQLVQSGAEVKKPGASVKVSCKASGFNIKDTYIQWVRQAPGQGLEWMGRIDPLRKQTKYREKFEGRVTITADTSTNTAYMELSSLRSEDTAVYYCVRSGREFDYWGQGTLVTVSSASTKGPSVFPLAPSSKSTSGGTAALGCLVKDYFPEPVTVSWNSGALTSGVHTFPAVLQSSGLYSLSSVVTVPSSSLGTQTYICNVNHKPSNTKVDKKVEPKSCDKTHTCPPCPAPELLGGPSVFLFPPKPKDTLMISRTPEVTCVVVDVSHEEPEVKFNWYVDGVEVHNAKTKPREEQYNSTYRVVSVLTVLHQDWLNGKEYKCKVSNDALPKPIEETISKAKGQPREPQVYTLPPSRCELTKNQVSLSCAVKGFYPSDIAVEWESNGQPENNYKTTPPVLDSDGSFFLVSKLTVDKSRWQQGNVFSCSVMHEALHNHYTQKSLSLSP
light: DIQMTQSPSSLSASVGDRVTITCRASQDIHKYIAWYQQKPGQAPRLLIQYTSTLQPGVPSRFSGSGSGTDYTFTISSLQPEDIATYYCLQYEQLRTFGGGTKVEIKRTVAAPSVFIFPPSDEQLKSGTASVVCLLNNFYPREAKVQWKVDNALQSGNSQESVTEQDSKDSTYSLSSTLTLSKADYEKHKVYACEVTHQGLSSPVTKSFNRGEC
notes: Anti-EREG IgG1 called homodimerized: both H chains carry D270E/K326D/A330K/K334E; also called H240-Kn133/H240-HI068/L73-k0
On to B2, for which the dissociation constant (Kd) with FcgRIIa R [1] came to 450 nM; with FcgRIIIa V [2] it was 14 nM; with FcgRIIIa F [3], 120 nM; in the assay with FcgRIIa H [4], 160 nM.

B3: H240-Kn113/H240-Hl076/L73-k0 (antibody, human IgG1, kappa)
heavy 1: QDQLVQSGAEVKKPGASVKVSCKASGFNIKDTYIQWVRQAPGQGLEWMGRIDPLRKQTKYREKFEGRVTITADTSTNTAYMELSSLRSEDTAVYYCVRSGREFDYWGQGTLVTVSSASTKGPSVFPLAPSSKSTSGGTAALGCLVKDYFPEPVTVSWNSGALTSGVHTFPAVLQSSGLYSLSSVVTVPSSSLGTQTYICNVNHKPSNTKVDKKVEPKSCDKTHTCPPCPAPEENWGPSVFLFPPKPKDTLMISRTPEVTCVVVDVSDEEPEVKFNWYVDGVEVHNAKTKPREEQYNATYRVVSVLTVLHQDWLNGKEYKCKVSNKALPAPIEKTISKAKGQPREPQVCTLPPSRDELTKNQVSLWCLVKGFYPSDIAVEWESNGQPENNYKTTPPVLDSDGSFFLYSKLTVDKSRWQQGNVFSCSVMHEALHNHYTQKSLSLSP
heavy 2: QDQLVQSGAEVKKPGASVKVSCKASGFNIKDTYIQWVRQAPGQGLEWMGRIDPLRKQTKYREKFEGRVTITADTSTNTAYMELSSLRSEDTAVYYCVRSGREFDYWGQGTLVTVSSASTKGPSVFPLAPSSKSTSGGTAALGCLVKDYFPEPVTVSWNSGALTSGVHTFPAVLQSSGLYSLSSVVTVPSSSLGTQTYICNVNHKPSNTKVDKKVEPKSCDKTHTCPPCPAPELLGGPSVFLFPPKPKDTLMISRTPEVTCVVVDVSHEEPEVKFNWYVDGVEVHNAKTKPREEQYNSTYRVVSVLTVLHQDWLNGKEYKCKVSNDALPMPIEETISKAKGQPREPQVYTLPPSRCELTKNQVSLSCAVKGFYPSDIAVEWESNGQPENNYKTTPPVLDSDGSFFLVSKLTVDKSRWQQGNVFSCSVMHEALHNHYTQKSLSLSP
light: DIQMTQSPSSLSASVGDRVTITCRASQDIHKYIAWYQQKPGQAPRLLIQYTSTLQPGVPSRFSGSGSGTDYTFTISSLQPEDIATYYCLQYEQLRTFGGGTKVEIKRTVAAPSVFIFPPSDEQLKSGTASVVCLLNNFYPREAKVQWKVDNALQSGNSQESVTEQDSKDSTYSLSSTLTLSKADYEKHKVYACEVTHQGLSSPVTKSFNRGEC
notes: Heterodimerized anti-EREG IgG1: Kn113 is H240-Kn072 with Y234E and Y235N
Take B3: the Kd with FcgRIIa R [5] came out at 600 nM; with FcgRIIb, 5000 nM; with FcgRIIIa V [6] it was 0.62 nM; with FcgRIa, 0.21 nM; with FcgRIIIa F [7], 1.7 nM; in the assay with FcgRIIa H [8] it was 350 nM.

(Values after US20180155451A1 (published 2018).)
